± gives the standard error. This sample holds only a part of the variants without activity.
B1: glmS ribozyme (parent)
chain: AUAAAAGCGCCAGAACUACAGAAAUGUAGUUGACGAGGAGGAGGUUUAUCGAAUUUUCGGCGGAUGCCUCCAAA

Columns and labels:
Details in all cases: with glucosamine-6-phosphate
glucosamine-6-phosphate [1] = variants of: B1; experiment: self-cleavage kobs at 40 uM GlcN6P; higher = faster cleavage; RNA array
Procedure, shortened: (§1)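 Glucosamine-6-phosphate, from 40 μM to 10 mM in HEPES/KCl/Mg(OAc)2 buffer, was flowed over sequenced MiSeq chips carrying barcoded ribozyme variants transcribed in situ by E. coli RNA polymerase. A hybridised Cy3 probe tracked the variants at 37 °C as tiles were imaged over ~14 h. kobs, kcat and KM were obtained by fitting normalised per-tile medians to exponential decays and then applying weighted Michaelis–Menten fits across concentrations.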

glucosamine-6-phosphate [2] = variants of: B1; experiment: self-cleavage kobs at 10000 uM GlcN6P; higher = faster cleavage; RNA array
Procedure, shortened: as §1

glucosamine-6-phosphate [3] = variants of: B1; experiment: self-cleavage kobs at 640 uM GlcN6P; higher = faster cleavage; RNA array
Procedure, shortened: as §1

glucosamine-6-phosphate [4] = variants of: B1; experiment: self-cleavage kobs at 2500 uM GlcN6P; higher = faster cleavage; RNA array
Procedure, shortened: as §1

glucosamine-6-phosphate [5] = variants of: B1; experiment: self-cleavage kobs at 160 uM GlcN6P; higher = faster cleavage; RNA array
Procedure, shortened: as §1

Variant	self-cleavage kobs at 40 uM GlcN6P (glucosamine-6-phosphate [1])	self-cleavage kobs at 10000 uM GlcN6P (glucosamine-6-phosphate [2])	self-cleavage kobs at 640 uM GlcN6P (glucosamine-6-phosphate [3])	self-cleavage kobs at 2500 uM GlcN6P (glucosamine-6-phosphate [4])	self-cleavage kobs at 160 uM GlcN6P (glucosamine-6-phosphate [5])
AUAAAAGCGCCAGAACUACAGAAAUGUAGUUGACGAGGAGGAGGUUUAUAGAAUUUUUGGUGUAUGCCUCCAAA [C50A C58U C61U G63U]	< 1e-05 s⁻¹	–	–	–	–
AUAAAAGCGCCAGAACUACAGAAAUGUAGUUGACAAGGAGGAGGUUUCUCGAAUGUUCGGCGGAUGCCUCCAAA [G35A A48C U55G]	< 1e-05 s⁻¹	–	–	–	–
AUAAAAGCGCCCGAACUACAGAAAUGUAGUAGAUGCGGAGGAGGUUUAUCGGAUUUUAGGCGUAUGCCUCCAAA [A12C U31A C34U A36C A52G C58A G63U]	< 1e-05 s⁻¹	< 1e-05 s⁻¹	–	–	–
AUAAAAGCGCCAGAACUACAGAAAUGUAGUUGACGAGGAGGAGUUUUAUCGAAUUUCCGGCGGAUGCCUCCAAA [G44U U57C]	< 1e-05 s⁻¹	< 1e-05 s⁻¹	< 1e-05 s⁻¹	< 1e-05 s⁻¹	–
AUAAAAGGGCCAGAACUACAGAAAUGUAGUUGACGAUGAGCAGGUUUAUCGAAUUAUCGGCGGAUGCCUCCAAA [C8G G37U G41C U56A]	< 1e-05 s⁻¹	–	–	< 1e-05 s⁻¹	–
AUAAAAGCGCCAGAACUACAGAAAUGUAGCUGACGAGGAGGAGAUUUAUCGAAUUUUCGGCGGAUGCCUCCAAA [U30C G44A]	< 1e-05 s⁻¹	< 1e-05 s⁻¹	< 1e-05 s⁻¹	–	< 1e-05 s⁻¹
AUAAAAGCGCCAGAACUACAGAAAUGUAGUUGACGAGGAAGAUGUUUAUCGAAUUUUCGGCGGAUGCCUCCAAA [G40A G43U]	< 1e-05 s⁻¹	< 1e-05 s⁻¹	< 1e-05 s⁻¹	–	< 1e-05 s⁻¹
AUAAAGGCGCCAGAACUACAGAAAUGUAGUUGACGAGGAGGAGGUUUAUGGAAUUUUCGGCGGUUGCCUCCAAA [A6G C50G A64U]	7.9e-05 ± 3.2e-05 s⁻¹	0.000157 ± 2.5e-05 s⁻¹	–	–	–
AUAAAAGCGCCAGAACUACAGAAAUGUAGUUGACGAGGAGGAGGUUUAUCGAAUUUUCCUCGGAUGCCUCCAAA [G59C G60U]	< 1e-05 s⁻¹	< 1e-05 s⁻¹	< 1e-05 s⁻¹	< 1e-05 s⁻¹	< 1e-05 s⁻¹
AUAAAAGUGCCAGAACUACAGAAAUGUAGUUGACGAGGAGGAGGUUCAUCGAAUUUUCGGCGGAUGCCUCCAAA [C8U U47C]	< 1e-05 s⁻¹	< 1e-05 s⁻¹	< 1e-05 s⁻¹	< 1e-05 s⁻¹	< 1e-05 s⁻¹
AUAAAAGCGCCAGAACUACAGAAAUGUAGUUGACGAGGCGGAGGUUUAUCGAAUUUUCGGCGGAUGCGUCCAAA [A39C C68G]	< 1e-05 s⁻¹	< 1e-05 s⁻¹	–	–	–
AUAAAAGCGCCAGAACUACAGAAAUGUAGUUGACGAGGAGGAGGUUUAUCGAAUUGUCGGCGGAUGCCUCUAAA [U56G C71U]	0.000303 ± 4.6e-05 s⁻¹	0.0163 ± 0.0024 s⁻¹	0.00222 ± 0.00042 s⁻¹	0.00323 ± 0.00056 s⁻¹	0.000762 ± 0.00016 s⁻¹

From the supplement of paper PMC7125110
